The values that follow come from patent US20260007714A1 (TEN PEAKS, published 2026).

One experiment addresses T1, HLA-B*15:01 (human).
T1 construct: the method paragraph describes expression only for HLA-B*39:01
The experiment is described as follows: refolding of HLA with synthetic peptide, size-exclusion chromatography (FIG. 4B).

The next experiment deals with T2, HLA-B*57:01 (human).
T2 construct: the method paragraph describes expression only for HLA-B*39:01; also called HLA-B*057:01
The experiment is described as follows: refolding of HLA with synthetic peptide, size-exclusion chromatography (FIG. 4A).

B1: SEQ ID NO: 2 (TKGPSVFPL), synthetic peptide derived from the infliximab heavy chain (peptide)
peptide: TKGPSVFPL
notes: Synthetic peptide (Genscript) derived from infliximab; also called 3901_tkg
Turning to B1, the binding result with HLA-B*15:01 and with HLA-B*57:01 was “no binding” throughout.

B2: SEQ ID NO: 1 (THQGLSSPV), synthetic peptide derived from the infliximab light chain (peptide)
peptide: THQGLSSPV
notes: Synthetic peptide (Genscript) derived from infliximab; also called 3901_thq
Turning to B2, the binding result in the experiment with HLA-B*15:01 and with HLA-B*57:01 was “no binding” throughout.
